{"source": "patent US20100278806A1", "about": "“Composition Containing Arazyme for the Prevention and Treatment of Arthritis” (Insect Biotech Co., Ltd., priority 2008, published 2010)", "molecules": {"B1": {"name": "arazyme: enzyme purified from Aranicola proteolyticus HY-3 (KCTC 0268BP) culture; monomer of approximately 51.5 kDa; amino acid sequence SEQ ID No: 1 (protein, listed as Aranicola proteolyticus)", "chain": "MQSTKKAIEITESSLAAASSAYNAVDDLLHYHERGNGIQVNGKDSFSTEQAGLFITRENQTWNGYKVFGQPVKLTFSFPDYKFSSTNVAGDTGLSKFSAEQQQQAKLSLQSWSDVANITFTEVGAGQKANITFGNYSQDRPGHYDYDTQAYAFLPNTIYQGQNLGGQTWYNVNQSNVKHPASEDYGRQTFTHEIGHALGLSHPGDYNAGEGNPTYRDASYAEDTREFSLMSYWSETNTGGDNGGHYAAAPLLDDISAIQHLYGANQTTRTGDTVYGFNSNTGRDFLSTTSNPQKVIFAAWDAGGNDTFDFSGYTANQRINLNEKSFSDVGGLKGNVSIAAGVTIENAIGGSGNDVIVGNAANNVLKGGAGNDVLFGGGGADELWGGAGKDTFVFSAVSDSAPGASDWIKDFQKGIDKIDLSFFNQGAQGGDQIHFVDHFSGAAGEALLSYNASNNVSDLALNIGGHQAPDILVKIVGQVDVATDFIV", "modifications": "Zn binding site (192)..(192); Zn binding site (196)..(196); Zn binding site (323)..(323)"}}, "key": {"[1]": {"tested_on": "Wistar-derived SPF female rats", "assay": "Acute toxicity experiment of arazyme, single oral administration", "assay_type": "in vivo", "method": "4 groups, each consisting of 4 Wistar-derived specific pathogen free (SPF) female rats (Orient Co., Ltd., Seoul, Korea), were bred in an animal laboratory under conditions of temperature 22° C.±3° C., humidity 55±10%, and illumination 12 L/12 D. After purchase, the rats were quarantined and adapted in the animal laboratory for 1 week. During the whole test period, 5 or less rats were accommodated in each polycarbonate cage (240 W×390 L×175 H mm). For individual identification, both skin mark using an oil marker and group distinction cards at each breeding box were used. Solid fodder for experimental animals (PMI Nutrition International, USA) was sterilized, and tap water was freely given by a water bottle.\nArazyme in the Examples was dissolved in sterilized water for injection at 0, 1250, 2500, and 5000 mg/kg, prepared at a dose of 10 ml/kg, and orally administered to the rats using zonde one. After 1 week adaptation, the rats were divided into 4 groups and arazyme was administered to 10 week-old rats at each concentration to observe general symptoms. Subsequently, an autopsy was performed after 24 hours in order to evaluate the toxicity of arazyme on actual organs.\nAfter oral administration of arazyme into female rats, the behaviors, appearances, and functions of the animals were investigated in order to observe general symptoms exactly according to the administration of a test material and evaluate the toxicity."}, "[2]": {"tested_on": "joint cartilage of osteoarthritis-induced right knee", "assay": "Visual observation of the changes of joint cartilage, osteoarthritis-induced rabbits", "assay_type": "in vivo, NewZealand White Rabbits", "conditions": "autopsy at 12 weeks", "from_the_text": "(§1) It is known that not only repetitive joint damage but also a lesion similar to that of human degenerative osteoarthritis is induced in a rabbit model with knee meniscus removed. A method for tearing the cranial cruciate ligament is used as a method for inducing osteoarthritis in rabbits (Hulth A. et al., Acta Orthp Scand. 41:522-530, 1970). In the present experiment, the cranial cruciate ligament of a rabbit was torn to induce the instability of joints and simultaneously medial meniscus was removed to induce osteoarthritis.\n(§2) The cranial cruciate ligaments of right knees of all the experimental animals were torn to induce the instability of joints and medial meniscuses were simultaneously removed to induce osteoarthritis. […]\n(§3) In order to induce osteoarthritis effectively, all the animals in the experimental group were subjected to a forced exercise task using a treadmill for 5 min every day from the day 4 after the induction surgery of osteoarthritis, and arthrography was performed on both knee joints at 4 weeks, 8 weeks, and 12 weeks after administration of the test material to measure the changes of joint surface. An autopsy was performed at 12 weeks after administration of the test material to conduct serologic tests of blood samples through collection of blood and control effects of the test material on osteoarthritis were assessed through a histopathological test. […]"}, "[3]": {"tested_on": "joint cartilage of osteoarthritis-induced right knee", "assay": "Histopathological observation of joint cartilage (H&E, toluidine blue, azan), osteoarthritis-induced rabbits", "assay_type": "in vivo, NewZealand White Rabbits", "conditions": "autopsy at 12 weeks, optical microscope", "from_the_text": "as §1\nThe cranial cruciate ligaments of right knees of all the experimental animals were torn to induce the instability of joints and medial meniscuses were simultaneously removed to induce osteoarthritis. Sharm-operations were performed on the left knees to be used as a control against administration of a test material. Tear of cranial cruciate ligament and medial meniscus removal were performed as follows. The animals were fasted for 6 to 12 hours prior to the operation and only drinking water was supplied. Subsequently, an anesthetic of Xylazine (Rompun, Bayer Korea Ltd.) at 1.25 ml/6 mg/kg and Zoletil50 (Virbac) at 0.2 ml/10 mg/kg was intramuscularly injected to anesthetize the animals. […]\nas §3"}, "[4]": {"tested_on": "TNF-α", "assay": "Measurement of TNF-α in serum by ELISA, osteoarthritis-induced rabbits", "assay_type": "in vivo, NewZealand White Rabbits", "conditions": "autopsy at 12 weeks of administration in drinking water, arazyme 250 mg/kg, celecoxib 10 mg/kg/day, no statistical significance", "from_the_text": "as §1, §2, §3"}, "[5]": {"conditions": "after single oral administration up to 5000 mg/kg"}}}
{"molecule": "B1", "values": [{"measurement": "microscopic findings in liver, heart, lung and pancreas", "setting": "[1]; 24 hours after oral administration up to 5000 mg/kg", "result": "No pathological symptoms were observed"}, {"measurement": "general symptoms (activity, walking, temperament, convulsion)", "setting": "[1]; [5]", "result": "no abnormal symptoms"}, {"measurement": "outward appearance and functions (respiration, salivation, feces, vomiting)", "setting": "[1]; [5]", "result": "No abnormal changes were observed"}, {"measurement": "estimated LD50", "setting": "[1]; single oral administration 0, 1250, 2500, 5000 mg/kg", "result": "at least 5000 mg/kg"}, {"measurement": "cartilage damage of femoral joint surface, visual observation", "setting": "[2]; arazyme 250 mg/kg, celecoxib 10 mg/kg/day", "result": "less cartilage damage was generally shown than in the negative control group"}, {"measurement": "lesions of tibia joint surface, visual observation", "setting": "[2]; positive control group compared with test material group", "result": "generally similar lesions were observed in the groups"}, {"measurement": "damage of joint cartilage, hematoxylin-eosin staining", "setting": "[3]", "result": "most of the vertical fissures were formed into sites corresponding to the mid zones from the surface"}, {"measurement": "loss of collagen, azan staining", "setting": "[3]", "result": "weak loss of collagen"}, {"measurement": "loss of proteoglycan, toluidine blue staining", "setting": "[3]", "result": "proteoglycan was lost into the mid zone"}, {"measurement": "expression of TNF-α in serum compared with negative control group", "setting": "[4]", "result": "at a lower level than the negative control group"}]}
